# Assay results as given in patent publication US20250250357A1 (NANJING ZAIMING PHARMACEUTICAL, published 2025).
# Substitutions are numbered along the chain they refer to.
# B1: S009-F3.38.10 (antibody, human IgG1, kappa, V domains shown)
# VH: EVQLQQSGPVLVKPGASVKMSCEASGYIFTDYYMNWVKKSHGKSLEWIGVINPKNGVISHNQKFKGKATLTVDKSSNTAYMELSSLTSEDSAVYYCANYGSRFYAMDYWGQGTSVTVSS
# VL: DVVMTQTPLSLPVSLGDQASISCRSSQSLIHSDGNTYLQWYLQKSGQSPKLLIYKVSNRFSGVPDRFSGSGSGTDFTLKISRVETEDLGVYFCSQTTHVPFTFGSGTKLEIKR
# notes: Human-murine chimeric antibody, human IgG1/kappa constant regions
# B2: S009-F3.7.3 (antibody, human IgG1, kappa, V domains shown)
# VH: EVNFEESGGGLVQPGGSMKLSCVASGFTFSNYWMNWVRQSPEKGLEWVAQIRLKSDNYATHYAESVKGRFTISRDDFKSSVYLQMNNLRAEDTGIYYCTVGTGGYWGQGTTLTVSS
# VL: DIVLTQSPASLAMSLGKRATISCRASESVSIVGTNVIHWFQQKPGQPPKLLIYHASNLETGVPARFSGSGSGTDFTLTIDPVEEDDVAIYHCLQSRKIPWTFGGGTKLEIKR
# notes: Human-murine chimeric antibody: murine VH/VL on human IgG1 heavy chain constant region and human kappa constant region
# B3: S009-F3.16.1 (antibody, human IgG1, kappa, V domains shown)
# VH: B2 VH with N3K, T71S, F77S, T99S
# VL: B2 VL with M13L, L15P, V32I, N35D, G72R, H91Y
# notes: as for B1
# B4: S009-F3.74.20 (antibody, human IgG1, kappa, V domains shown)
# VH: RVQLQQSGAELVRPGASVTLSCKASGYTFTDSEMHWVKQTPVHGLEWIGAIDPEIDGTAYNQNFRDKAILTADKSSSTAYMELRSLTSEDSAVYYCTTYFGSGYGYFDVWGTGTTVTVSS
# VL: DVVMTQTPLSLSVSLGDQASISCRSSQSLVYSNGNTYLHWFLQKPGQSPKLLIYKVSNRFSGVPDRFSGSGSGTDFTLKINRVEAEDLGVYFCSQSTHIPFTFGAGTKLELKR
# notes: human-murine chimeric antibody, human IgG1/kappa constant regions
# B5: S009-F3.80.22 (antibody, human IgG1, kappa, V domains shown)
# VH: QVQLQQSGAELVRPGASVTLSCKASGYTFTDYEIHWVKQTPVHGLEWIGAFDPEIGGSAYNQKFKDRATLTADKSSSTAYMELHSLTAEDSAVYYCTDYYGSSSGYFDVWGTGTTVTVSS
# VL: B1 VL with I30E, S32N, D33N, Q39H, Y41F, Q43H, S45P, T85A, T96S
# notes: as for B4
# B6: S009-F4-127.10 (antibody, human IgG1, kappa, V domains shown)
# VH: EVQLQQSGPVLVKPGASVKMSCKASGYTFTDYYMNWVKQSHGKSPEWIGVINPYNDVISYNQKFKGKATLTVDKSSSTAYMELNSLTSEDSAVYYCANYGSSYYAMDYWGQGTSVTVSS
# VL: B1 VL with P12S, I30V, D33N, Y41S, S45P, K50N, T85A, S105G, K112R
# notes: as for B4
# Target: T1, human MSLN-R3-his protein (human, UniProt Q13421 487-598)
# T1 construct: also called human MSLN-R3 protein; hMSLN-R3-his; not shown: His tag
# T1 sequence (Q13421 495-606): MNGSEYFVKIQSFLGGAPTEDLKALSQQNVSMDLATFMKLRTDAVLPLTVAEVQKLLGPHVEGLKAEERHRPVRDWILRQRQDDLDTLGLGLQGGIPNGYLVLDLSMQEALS
# Experiment: ELISA, coated antigen; antibody 0.0001 nM
# Description: (§1) The plate was sealed with a plastic film and incubated at 4° C. overnight. The next day, the plate was washed twice with PBST, and a blocking buffer [PBS+2% (w/w) BSA] was added for blocking at room temperature for 2 h. The blocking buffer was discarded, and a chimeric antibody or negative control antibody serially diluted from 100 nM was added at 50 μL/well. After incubation at 37° C. for 2 h, the plate was washed 3 times with PBST. […] After incubation at 37° C. for 2 h, the plate was washed 5 times with PBST. A TMB substrate was added at 50 μL/well for incubation at room temperature for 5-10 min, and then a stop solution (1.0 N HCl) was added at 50 μL/well.
row,Binder,OD450 [OD450]
1,B1,0.08
2,B2,0.07
3,B3,0.08

# Target: T2, human MSLN-FL-his protein (human, UniProt Q13421 296-580)
# T2 construct: made in HEK293E cells, purified on nickel column; also called hMSLN-FL-his; human MSLN full-length protein; not shown: His tag
# T2 sequence (Q13421 other isoform, or with tags, fused parts or gaps): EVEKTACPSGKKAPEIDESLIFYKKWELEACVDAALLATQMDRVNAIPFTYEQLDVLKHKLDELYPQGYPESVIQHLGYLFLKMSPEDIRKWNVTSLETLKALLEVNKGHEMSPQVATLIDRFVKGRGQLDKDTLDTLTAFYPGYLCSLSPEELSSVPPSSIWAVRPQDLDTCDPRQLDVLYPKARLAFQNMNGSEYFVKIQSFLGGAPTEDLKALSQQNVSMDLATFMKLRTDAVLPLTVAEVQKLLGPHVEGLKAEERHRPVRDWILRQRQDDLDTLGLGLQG
# Experiment: competitive ELISA; coated 2ug/ml F3.51.8
row,Binder,competition rate [%]
1,B4,96
2,B5,43
3,B6,87

# Target: T1, human MSLN-R3-his protein
# Experiment: ELISA, coated antigen; antibody 0.1 nM
# Description: as §1
row,Binder,OD450 [OD450]
1,B1,1.47
2,B2,1.13
3,B3,1.61

# Target: T3, human MSLN-R2-his protein (human, UniProt Q13421 391-486)
# T3 construct: also called human MSLN-R2 protein; hMSLN-R2-his; not shown: His tag
# T3 sequence (Q13421 other isoform, or with tags, fused parts or gaps): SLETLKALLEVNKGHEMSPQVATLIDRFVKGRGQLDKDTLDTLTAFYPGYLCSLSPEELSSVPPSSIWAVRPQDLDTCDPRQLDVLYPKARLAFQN
# Experiment: ELISA, coated antigen; antibody 0.0001 nM
row,Binder,OD450 [OD450]
1,B1,0.07
2,B2,0.07
3,B3,0.06

# Target: T4, human MSLN-R3-3 polypeptide (human)
# T4 construct: also called human MSLN-R3-3 protein; hMSLN-R3-3
# Experiment: ELISA, coated antigen; no antibody (blank, column 'none')
# Description: as §1
row,Binder,OD450 [OD450]
1,B1,0.07
2,B2,0.08
3,B3,0.08

# Target: T4, human MSLN-R3-3 polypeptide
# Experiment: ELISA, coated antigen; antibody 0.001 nM
# Description: as §1
row,Binder,OD450 [OD450]
1,B1,0.08
2,B2,0.07
3,B3,0.08

# Target: T2, human MSLN-FL-his protein
# Experiment: competitive ELISA; coated 2ug/ml Tab142 (R1)
# Description: (§2) In order to identify antigen-binding sites of antibodies, MSLN chimeric antibodies were grouped using competitive ELISA.
# (§3) The chimeric antibodies were diluted to 2 μg/mL with PBS and allowed to coat 96-well high-adsorption ELISA plates at 50 μL/well. After the plates were coated at 4° C. overnight, 250 μL of a blocking buffer (PBS containing 2% (w/w) BSA) was added for two hours of blocking at room temperature. 40 μg/mL of the antibodies to be tested were added, and then the human MSLN-FL-His protein with an EC₈₀ concentration corresponding to each of the antibodies to be tested was added for incubation for 2 h. The plates were washed 5 times with PBS, an HRP-labeled anti-His secondary antibody (purchased from Genescript, Cat. No. A00612) was then added for incubation for 1 h, and the plates were washed 5 times again. A TMB substrate was added at 50 μL/well, and after 10 minutes of incubation at room temperature, a stop solution (1.0 M HCl) was added at 50 μL/well. OD₄₅₀ nm values were read using an ELISA plate reader (Insight, purchased from PerkinElmer), and the competition rate between the antibodies was calculated according to the OD₄₅₀ nm values using a formula.
row,Binder,competition rate [%]
1,B4,-28
2,B5,81
3,B6,-27

# Target: T1, human MSLN-R3-his protein
# Experiment: ELISA, coated antigen; antibody 0.001 nM
# Description: as §1
row,Binder,OD450 [OD450]
1,B1,0.12
2,B2,0.11
3,B3,0.15

# Target: T4, human MSLN-R3-3 polypeptide
# Experiment: ELISA, coated antigen; antibody 10 nM
# Description: as §1
row,Binder,OD450 [OD450]
1,B1,0.1
2,B2,0.08
3,B3,0.08

# Target: T3, human MSLN-R2-his protein
# Experiment: ELISA, coated antigen; antibody 100 nM
# Description: as §1
row,Binder,OD450 [OD450]
1,B1,0.13
2,B2,0.12
3,B3,0.12

# Target: T4, human MSLN-R3-3 polypeptide
# Experiment: ELISA, coated antigen; antibody 0.0001 nM
# Description: as §1
row,Binder,OD450 [OD450]
1,B1,0.07
2,B2,0.07
3,B3,0.07

# Target: T4, human MSLN-R3-3 polypeptide
# Experiment: ELISA, coated antigen; antibody 0.01 nM
# Description: as §1
row,Binder,OD450 [OD450]
1,B1,0.08
2,B2,0.07
3,B3,0.07

# Target: T3, human MSLN-R2-his protein
# Experiment: ELISA, coated antigen; antibody 0.001 nM
# Description: as §1
row,Binder,OD450 [OD450]
1,B1,0.06
2,B2,0.07
3,B3,0.06

# Target: T2, human MSLN-FL-his protein
# Experiment: SPR (Biacore), antibody captured on Protein A chip;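 further: measured at 25 °C, analyte injected 240 s in five twofold dilutions from 200 nM, dissociation up to 600 s, double-referenced, fitted with Langmuir 1:1 model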
# Description: The flow cell was set at 25° C. The sample block was set at 16° C. Both were pretreated with the running buffer. In each cycle, first, the antibody to be tested was captured using the Protein A chip, and then a single concentration of human MSLN-FL-his protein was injected. […] The association was determined by injecting different concentrations of human MSLN-FL-his in solution for 240 s on end, wherein the flow rate was 30 μL/min, and the protein was diluted in a 1:1 dilution ratio from 200 nM (see detailed results for actual concentrations tested) to obtain 5 concentrations in total. The dissociation phase was monitored for up to 600 s and triggered by switching from the sample solution to the running buffer. The surface was regenerated by washing with 10 mM glycine solution (pH 1.5) at a flow rate of 30 μL/min for 30 s. The difference in bulk refractive index was corrected by subtracting the responses obtained from the goat anti-human Fc surface. Blank injections were also subtracted (=double reference). To calculate the apparent KD and other kinetic parameters, the Langmuir 1:1 model was used.
Binder,Kd [nM],koff [s⁻¹],kon [M⁻¹ s⁻¹]
B4,4.92,5.04e-05,10300
B5,151,0.000332,2200
B6,171,0.000433,2530

# Target: T2, human MSLN-FL-his protein
# Experiment: competitive ELISA; coated 2ug/ml F3.45.21
# Description: as §2, §3
row,Binder,competition rate [%]
1,B4,94
2,B5,-67
3,B6,84

# Target: T3, human MSLN-R2-his protein
# Experiment: ELISA, coated antigen; no antibody (blank, column 'none')
# Description: as §1
row,Binder,OD450 [OD450]
1,B1,0.08
2,B2,0.08
3,B3,0.08

# Target: T3, human MSLN-R2-his protein
# Experiment: ELISA, coated antigen; antibody 0.1 nM
# Description: as §1
row,Binder,OD450 [OD450]
1,B1,0.18
2,B2,0.07
3,B3,0.18

# Target: T2, human MSLN-FL-his protein
# Experiment: competitive ELISA; coated 2ug/ml F4-127.10
# Description: as §2, §3
row,Binder,competition rate [%]
1,B4,33
2,B5,-22
3,B6,16

# Target: T1, human MSLN-R3-his protein
# Experiment: ELISA, coated antigen; no antibody (blank, column 'none')
# Description: as §1
row,Binder,OD450 [OD450]
1,B1,0.09
2,B2,0.08
3,B3,0.09

# Target: T2, human MSLN-FL-his protein
# Experiment: competitive ELISA; coated 2ug/ml Tab108 (R3)
# Description: as §2, §3
row,Binder,competition rate [%]
1,B4,34
2,B5,35
3,B6,-37

# Target: T1, human MSLN-R3-his protein
# Experiment: ELISA, coated antigen; antibody 0.01 nM
# Description: as §1
row,Binder,OD450 [OD450]
1,B1,0.41
2,B2,0.43
3,B3,0.65

# Target: T3, human MSLN-R2-his protein
# Experiment: ELISA, coated antigen; antibody 10 nM
# Description: as §1
row,Binder,OD450 [OD450]
1,B1,0.18
2,B2,0.09
3,B3,0.08

# Target: T4, human MSLN-R3-3 polypeptide
# Experiment: ELISA, coated antigen; antibody 1 nM
# Description: as §1
row,Binder,OD450 [OD450]
1,B1,0.08
2,B2,0.07
3,B3,0.07

# Target: T4, human MSLN-R3-3 polypeptide
# Experiment: ELISA, coated antigen; antibody 100 nM
# Description: as §1
row,Binder,OD450 [OD450]
1,B1,0.32
2,B2,0.11
3,B3,0.11

# Target: T2, human MSLN-FL-his protein
# Experiment: competitive ELISA; coated 2ug/ml F3.74.20
# Description: as §2, §3
row,Binder,competition rate [%]
1,B4,98
2,B5,-12
3,B6,91

# Target: T2, human MSLN-FL-his protein
# Experiment: competitive ELISA; coated 2ug/ml F3.23.1
# Description: as §2, §3
row,Binder,competition rate [%]
1,B4,100
2,B5,-109
3,B6,88

# Target: T1, human MSLN-R3-his protein
# Experiment: ELISA, coated antigen; antibody 10 nM
# Description: as §1
row,Binder,OD450 [OD450]
1,B1,1.85
2,B2,1.74
3,B3,1.91

# Target: T4, human MSLN-R3-3 polypeptide
# Experiment: ELISA, coated antigen; antibody 0.1 nM
# Description: as §1
row,Binder,OD450 [OD450]
1,B1,0.08
2,B2,0.07
3,B3,0.08

# Target: T3, human MSLN-R2-his protein
# Experiment: ELISA, coated antigen; antibody 0.01 nM
# Description: as §1
row,Binder,OD450 [OD450]
1,B1,0.11
2,B2,0.06
3,B3,0.06

# Target: T1, human MSLN-R3-his protein
# Experiment: ELISA, coated antigen; antibody 100 nM
# Description: as §1
row,Binder,OD450 [OD450]
1,B1,2.05
2,B2,2.16
3,B3,1.92

# Target: T3, human MSLN-R2-his protein
# Experiment: ELISA, coated antigen; antibody 1 nM
# Description: as §1
row,Binder,OD450 [OD450]
1,B1,0.21
2,B2,0.07
3,B3,0.06

# Target: T2, human MSLN-FL-his protein
# Experiment: competitive ELISA; coated 2ug/ml F3.80.22
# Description: as §2, §3
row,Binder,competition rate [%]
1,B4,-15
2,B5,63
3,B6,-5

# Target: T1, human MSLN-R3-his protein
# Experiment: ELISA, coated antigen; antibody 1 nM
# Description: as §1
row,Binder,OD450 [OD450]
1,B1,1.71
2,B2,1.63
3,B3,1.8
